From paper PMC9354405

Target: HBV S/preS1^16-42 chimeric antigen (Hepatitis B virus, genotype D) (UniProt P03138)
Experiment: SDS-PAGE under non-reducing conditions with western blot; lysates of transfected HEK293T cells, -DTT, detected with anti-preS1 antibodies; dimers of ~50 kDa held by intermolecular disulfide bonds

Substance: HBV S/preS1^16-42 chimeric antigen (from UniProt P03138 16-42)
- stoichiometry N: 2
